# Assay results taken from paper PMC5043372, “A pre-metazoan origin of the CRK gene family and co-opted signaling network” (Scientific Reports, 2016).
# Non-standard residues stand in square brackets, D forms with d. No end group written: not given here. pY = N[C@@H](Cc1ccc(OP(=O)(O)O)cc1)C(=O)O
# T1: SH2 domain of Monosiga brevicollis crka1 (Monosiga brevicollis, UniProt A0A1C9VNP8 1-97)
# T1 construct: seven additional amino acids left at the N-terminus after His-tag removal; For the NMR structure the same domain was made with the E. coli cell-free protein synthesis system; also called Mb-crka1 SH2; crka1 SH2 domain
# T1 sequence: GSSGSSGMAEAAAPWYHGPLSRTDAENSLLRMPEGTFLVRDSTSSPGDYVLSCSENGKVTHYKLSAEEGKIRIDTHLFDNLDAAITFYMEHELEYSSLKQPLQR
# Target: T1, SH2 domain of Monosiga brevicollis crka1
# Experiment: ITC; peptide (400 uM) injected into the cell holding the SH2 domain (40 uM); 25 °C; 25 mM HEPES, pH7, 100 mM NaCl; MicroCal Auto-iTC200
# Conditions: both partners purified
row,Binder,binding result
1,"EM[pY]DVPRS (together with DM-pYDVP-RN it overlaps 5 of the 10 YxxP motifs; source: synthetic peptide, bought: Toray Research Center) [phosphopeptide EM-pYDVP-RS of S. rosetta PTSG_05573]",binds
2,"DM[pY]DVPRN (together with EM-pYDVP-RS it overlaps 5 of the 10 YxxP motifs; source: synthetic peptide, bought: Toray Research Center) [phosphopeptide DM-pYDVP-RN of S. rosetta PTSG_05573]",binds
